Data reported in article PMC5970177.

Target: αvβ3 integrin (human (endogenous in U87MG)) (UniProt P06756)
Chain of UniProt P06756 (P06756 31-1048, chain 1 of 2): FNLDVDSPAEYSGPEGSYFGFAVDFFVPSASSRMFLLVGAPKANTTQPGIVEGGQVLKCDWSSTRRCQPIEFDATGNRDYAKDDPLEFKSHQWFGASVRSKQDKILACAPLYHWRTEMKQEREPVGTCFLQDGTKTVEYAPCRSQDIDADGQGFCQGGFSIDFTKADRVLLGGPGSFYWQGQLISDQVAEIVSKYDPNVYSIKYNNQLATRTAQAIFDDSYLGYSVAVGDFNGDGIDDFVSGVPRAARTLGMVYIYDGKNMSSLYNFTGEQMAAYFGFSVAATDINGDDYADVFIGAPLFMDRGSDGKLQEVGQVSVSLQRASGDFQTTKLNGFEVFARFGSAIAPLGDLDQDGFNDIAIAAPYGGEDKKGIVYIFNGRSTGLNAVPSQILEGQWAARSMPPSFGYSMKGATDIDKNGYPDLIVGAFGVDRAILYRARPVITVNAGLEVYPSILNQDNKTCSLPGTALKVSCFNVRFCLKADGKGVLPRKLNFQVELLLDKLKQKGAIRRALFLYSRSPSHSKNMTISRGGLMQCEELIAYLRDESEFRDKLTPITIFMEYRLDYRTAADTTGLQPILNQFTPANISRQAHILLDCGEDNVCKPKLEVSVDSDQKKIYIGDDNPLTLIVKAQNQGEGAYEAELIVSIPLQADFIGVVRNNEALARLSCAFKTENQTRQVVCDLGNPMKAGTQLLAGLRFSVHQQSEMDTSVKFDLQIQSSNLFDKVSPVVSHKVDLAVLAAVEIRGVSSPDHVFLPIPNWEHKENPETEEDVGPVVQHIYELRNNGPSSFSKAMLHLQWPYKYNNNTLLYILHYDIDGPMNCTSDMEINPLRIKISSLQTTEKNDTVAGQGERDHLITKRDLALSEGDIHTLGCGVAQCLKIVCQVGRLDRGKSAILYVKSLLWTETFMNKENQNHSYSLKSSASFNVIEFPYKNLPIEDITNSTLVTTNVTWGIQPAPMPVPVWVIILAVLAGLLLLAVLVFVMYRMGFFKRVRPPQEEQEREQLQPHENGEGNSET
Chain of UniProt P06756 (P05106 27-788, chain 2 of 2, further chain): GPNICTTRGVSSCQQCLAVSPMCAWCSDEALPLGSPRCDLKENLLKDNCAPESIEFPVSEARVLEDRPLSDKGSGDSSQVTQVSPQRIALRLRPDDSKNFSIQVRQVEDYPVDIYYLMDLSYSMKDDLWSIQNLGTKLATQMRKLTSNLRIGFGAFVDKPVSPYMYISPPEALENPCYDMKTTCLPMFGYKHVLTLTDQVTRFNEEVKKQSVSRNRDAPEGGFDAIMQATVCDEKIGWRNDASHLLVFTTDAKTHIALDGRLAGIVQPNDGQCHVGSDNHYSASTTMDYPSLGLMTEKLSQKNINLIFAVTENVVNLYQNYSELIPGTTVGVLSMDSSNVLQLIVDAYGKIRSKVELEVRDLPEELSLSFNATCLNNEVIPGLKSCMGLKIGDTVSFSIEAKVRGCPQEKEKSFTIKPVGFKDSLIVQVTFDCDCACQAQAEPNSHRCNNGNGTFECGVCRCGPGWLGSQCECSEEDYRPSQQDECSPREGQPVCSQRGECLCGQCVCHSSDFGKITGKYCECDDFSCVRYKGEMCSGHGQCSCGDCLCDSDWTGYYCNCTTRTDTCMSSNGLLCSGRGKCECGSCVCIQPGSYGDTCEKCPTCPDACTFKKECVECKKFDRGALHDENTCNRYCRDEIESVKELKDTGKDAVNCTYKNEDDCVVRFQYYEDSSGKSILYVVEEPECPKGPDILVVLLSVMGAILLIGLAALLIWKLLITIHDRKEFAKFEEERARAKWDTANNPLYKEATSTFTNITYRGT

Substance 700DX-PEG-PGlu-cRGD15 (peptide) has a cellular uptake in U87MG cells at 200 nM 700DX (fluorescence intensity after 7 h), fold over cells incubated with 700DX-PEG-cRGD of 2.5 times and a cellular uptake in U87MG cells at 200 nM 700DX (fluorescence intensity after 7 h), fold over cells incubated with free 700DX of 4.5 times.
